How the values were obtained:
[1] = target: T1, human PD-L1 protein (coated antigen) (human, UniProt Q9NZQ7 19-238, limits assumed); experiment: PE-ELISA, crude extract on coated PD-L1
T1 construct: Construct not described; also called PD-L1 antigen; antigenic protein PD-L1
Procedure, shortened: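 Phage clones were expressed with 1 mmol IPTG at 28° C overnight, and crude periplasmic antibody was applied to PD-L1-coated plates for 1 h at room temperature. Detection used anti-HA, then an alkaline phosphatase conjugate, read at 405 nm. A sample/control OD ratio above 3 marked a positive clone.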

[2] = target: T2, PD-L1 on 293F cells transiently transfected with the PD-L1 full-length gene (UniProt Q9NZQ7 19-290, limits assumed); experiment: flow cytometry, 293F cells transiently transfected with PD-L1 or PD-L2
T2 construct: whole, on cells; also called PD-L1 transient cells
Experimental: In addition, the specificity of the PD-L1 nanobody was detected by flow cytometry. The PD-L1 full-length gene and the PD-L2 full-length gene were transiently transfected in a conventional 293F cell, and a nano-antibody (SEQ ID NO.: 1) of PD-L1 was selected for incubation for flow cytometry.

[3] = target: T1, human PD-L1 protein (coated antigen); experiment: ELISA, purified nanobody 10 ug/mL on coated PD-L1, anti-HA detection
Experimental: (§1) (1) Coated antigenic proteins PD-L1 and PD-L2: 0.5 μg per well (5 μg/mL, 100 μL), packaged NaHCO₃ (100 mM, pH8.2) was used as a blank control and overnight at 4° C. (2) Wash the cells three times with PBST the next day, add 200 μL of 1% BSA to block at room temperature for 2 hours. (3) Each purified nanobody was diluted to 10 μg/mL, and 100 pt of each of the purified nanobodies was incubated with the coated PD-L1, PD-L2 and the blank control group, and reacted at room temperature for 1 hour. (4) Unbound antibody was washed away with PBST, and 100 μL of mouse anti-HA tag antibody (1:2000 dilution) was added and placed at room temperature for 1 hour. (5) Unbound antibody was washed away with PBST, and anti-mouse alkaline phosphatase conjugate (1:2000 dilution) was added and placed at room temperature for 1 hour. (6) Wash the unbound antibody with PBST, add alkaline phosphatase coloring solution, and read the absorbance at 405 nm on an ELISA apparatus. The specificity of the nanobody was judged based on the absorption value.

[4] = target: T3, PD-L2 (coated antigenic protein) (UniProt Q9BQ51 20-220, limits assumed); experiment: ELISA, purified nanobody 10 ug/mL on coated PD-L2, anti-HA detection
T3 sequence (looked up): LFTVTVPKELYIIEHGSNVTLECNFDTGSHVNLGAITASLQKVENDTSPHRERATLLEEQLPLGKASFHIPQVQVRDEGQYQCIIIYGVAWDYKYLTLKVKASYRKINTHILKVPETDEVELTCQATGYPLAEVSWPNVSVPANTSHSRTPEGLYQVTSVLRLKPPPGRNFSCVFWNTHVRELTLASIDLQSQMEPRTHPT
Experimental: as §1

[5] = target: T1, human PD-L1 protein (coated antigen); experiment: ELISA, purified nanobody 10 ug/mL, coated PD-L1 against coated PD-L2
Experimental: as §1

T1 sequence (Q9NZQ7 19-238 limits assumed): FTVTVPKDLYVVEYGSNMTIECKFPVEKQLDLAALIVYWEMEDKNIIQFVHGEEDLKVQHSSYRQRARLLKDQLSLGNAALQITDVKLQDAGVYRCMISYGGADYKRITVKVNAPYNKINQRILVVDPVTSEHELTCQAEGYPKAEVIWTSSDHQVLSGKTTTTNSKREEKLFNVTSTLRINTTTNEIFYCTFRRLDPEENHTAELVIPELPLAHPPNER
T2 sequence (Q9NZQ7 19-290 limits assumed): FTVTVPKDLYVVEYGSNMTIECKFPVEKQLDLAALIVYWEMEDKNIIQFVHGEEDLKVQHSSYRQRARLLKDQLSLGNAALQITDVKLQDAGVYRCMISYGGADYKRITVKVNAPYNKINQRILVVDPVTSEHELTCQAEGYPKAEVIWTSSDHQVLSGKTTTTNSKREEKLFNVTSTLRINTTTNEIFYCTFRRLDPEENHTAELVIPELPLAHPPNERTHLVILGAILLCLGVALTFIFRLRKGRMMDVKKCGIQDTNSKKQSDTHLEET

OD ratio (experimental group (A405 nm)/control group (A405 nm)) [1]: > 20 | fold difference (PD-L1 transient cells against PD-L2 transient cells) [2]: ≥ 550 times | ELISA absorbance (A405 nm) [3]: 3.8 A405 nm | ELISA absorbance (A405 nm) [4]: 0.118 A405 nm | OD ratio (PD-L1/PD-L2) [5]: 32.2
B1: SEQ ID NO 1 (VHH)
VHH: QVQLQESGGGSVQTGGSLRLSCTASTSIYSNNYMAWFSQSPGKGREGVAAVYMDDGRPYYADSVKGRFTISLDSAKNTMYLQMNSLKPEDTAMYYCAAAPGPLSRNYWYTSANYDYWGQGTQVTVSS
notes: pMECS-expressed; also called anti-PD-L1 nanobody No. 1; VHH numbered 1

From patent publication US20190177416A1 (NANOMAB TECHNOLOGY, published 2019)
